{"source": "patent US20230015291", "proteins": {"B1": {"name": "recombinant wild-type human DNase1 (protein)", "chain": "LKIAAFNIQTFGETKMSNATLVSYIVQILSRYDIALVQEVRDSHLTAVGKLLDNLNQDAPDTYHYVVSEPLGRNSYKERYLFVYRPDQVSAVDSYYYDDGCEPCGNDTFNREPAIVRFFSRFTEVREFAIVPLHAAPGDAVAEIDALYDVYLDVQEKWGLEDVMLMGDFNAGCSYVRPSQWSSIRLWTSPTFQWLIPDSADTTATPTHCAYDRIVVAGMLLRGAVVPDSALPFNFQAAYGLSDQLAQAISDHYPVEVMLK"}}, "target": "rabbit skeletal muscle actin protein (Cytoskeleton, Denver, Colo., Catalog #AKL99-A), P68135", "data": [{"protein": "B1", "values": [{"measurement": "nuclease activity, SYTOX Green fluorescence assay (RFU over time), 4.5 nM enzyme with or without 40 ug/ml actin", "result": "The nuclease activity of the recombinant human DNase1 was inhibited by actin"}]}]}
